Patent US20140161875A1 (KATHOLIEKE UNIVERSITEIT LEUVEN, published 2014)
One block for each binder: values may come before it.

Key:
endogenous mouse tau = endogenous mouse tau (mouse, UniProt P10637-2 2-430, limits assumed); experiment: Western blot of mouse brain extracts
Excerpt: FIG. 3: Analysis of the novel mAbs on samples of transgenic mice and human brain. A) Western blot analysis of brain extracts from control mice (FVB), knock-out mice and transgenic (Tg) mice expressing a clinical mutant of human tau (Tau-P301L). The age of the mice is indicated between brackets. The arrow on the second blot indicates high molecular weight tau complexes. The antibodies used are ADx215 (YT1.15), ADx210 (YT1.10) and the commercial phosphorylation-specific antibody AT100 (exposure time of 30 min for ADx210 (YT1.10) and AT100, and 30 sec for ADx215 (YT1.15)). B) Tau epitope sequence recognized by ADx201 (YT1.1) and ADx215 (YT1.15). C) Western blot analysis of brain extracts from brain extracts obtained from a healthy person (non-AD) and an AD patient using the Mab ADx215 (YT1.15) (exposure time 2 min.). The brain regions from which the extracts were prepared are indicated. As control served brain extracts obtained from the hippocampus and cortex of the tau Tg mice Tau22. The arrow indicates high molecular weight tau complexes present in samples from AD brain. […]
Furthermore, the high affinity Mab ADx215 (YT1.15) specifically detected high molecular weight tau complexes in brain extracts of both Tg mice (Fig. A, C) and a late stage AD patient (data provided by L. Buée, Inserm U837, U. Lille, France; Fig. C).

[1] = target: T1, recombinant HIS-tagged tau obtained from E. coli (UniProt P10636-8 1-441, limits assumed); experiment: Western blot
T1 construct: also called E. coli-produced recombinant tau; recombinant non-phosphorylated tau purified from bacteria
Excerpt: FIG. 2: Selectivity for tau aggregates and phosphorylation dependency of anti-tau mAbs of the invention. A) Western blot analysis of recombinant HIS-tagged tau obtained from E. coli and protein extracts obtained from control and humanized yeast strains using the commercial pan-tau antibody Tau-5 and ADx210 mAb as indicated. The number between brackets refers to the exposure time. The solid bar refers to high molecular weight and oligomeric tau and the small arrow in the picture of ADx210 to a presumable tau dimer. B) Western blot analysis of purified tau obtained from the pho85Δ strain before and after treatment with shrimp alkaline phosphatase (SAP) following different time intervals as indicated. Recombinant HIS-tagged tau obtained from E. coli served as control. The pan-tau antibody Tau-5, the phosphorylation-specific antibody AT270, and the antibody BT2 recognizing non-phosphorylated tau, were used in addition to the novel mAbs ADx215 and ADx210.
The phosphorylation specificity was initially tested on extracts obtained from the humanized wild type yeast strain and its congenic mds1Δ and pho85Δ mutants that display reduced and increased tau phosphorylation. Recombinant tau produced by E. coli served as control.

Sequence of endogenous mouse tau (P10637 other isoform, or with tags, fused parts or gaps limits assumed): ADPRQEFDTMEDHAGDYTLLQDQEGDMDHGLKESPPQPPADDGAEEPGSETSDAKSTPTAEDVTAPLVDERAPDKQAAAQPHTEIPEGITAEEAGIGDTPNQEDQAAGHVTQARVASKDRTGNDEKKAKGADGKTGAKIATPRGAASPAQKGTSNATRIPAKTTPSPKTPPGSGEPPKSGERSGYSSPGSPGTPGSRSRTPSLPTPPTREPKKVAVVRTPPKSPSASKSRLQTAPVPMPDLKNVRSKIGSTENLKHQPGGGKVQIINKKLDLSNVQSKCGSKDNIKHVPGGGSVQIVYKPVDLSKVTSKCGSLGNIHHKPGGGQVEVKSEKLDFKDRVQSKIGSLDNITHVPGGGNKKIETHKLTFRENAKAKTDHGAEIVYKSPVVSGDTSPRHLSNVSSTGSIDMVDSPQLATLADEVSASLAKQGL

binding result (endogenous mouse tau): no binding
B1: ADx215 monoclonal antibody (hybridoma LMBP 9679CB) (antibody, IgG1, V domains shown)
VH: EVQLVESGGDLVKPGGSLKLSCAASGFNFRSYGMSWVRQTPDKRLEWVATISSGGNYTYYPDSVKGRFTISRDNAKNILYLQMSSLNSEDTALYYCTYSFYGAFDYWGQGTTLTVSS
VL: DVLMTQTPLSLPVSLGDQASISCRSSQNILHSNGNTYLEWYLQKPGQSPKLLIYKVSSRFSGVPDRFSGSGSGTDFTLKITRVEAEDLGVYYCFQGSLVPWTFGGGTKLEIRR
notes: also called YT1.15

binding result [1]: no binding
binding result (endogenous mouse tau): no binding
B2: ADx210 monoclonal antibody (hybridoma LMBP 8347CB) (antibody, V domains shown)
VH: VQLQESGGGLVQPGGSRKLSCAASGFTFSNFGMHWVRQAPDKGLEWVAYITSGSSSIYYADTVKGRFTISRDNPKNTLFLQMTSLRSEDTAMYYCARSVPYGYGLFDYWGRGTTLTVSS
VL: DVLMTQIPVSLSVSLGDQASISCRSSESIVHSSGKTYLEWYLQKPGQSPKLLIYEVSNRFSGVPDRFSGSGSGTDFTLKISRVEAEDLGVYYCFQGSHVPWTFGGGTKLEIKR
notes: Mouse hybridoma mAb (BALB/C immunised with yeast-purified tau); constant regions are not; also called YT1.10; IGH-593
